{"source": "IntAct's records for PubMed 15791205", "parents": {"B1": {"name": "Angiotensin-converting enzyme 2 (Rattus norvegicus (Rat)), Q5EGZ1 (parent)", "chain": "MSSSCWLLLSLVAVATAQSLIEEKAESFLNKFNQEAEDLSYQSSLASWNYNTNITEENAQKMNEAAAKWSAFYEEQSKIAQNFSLQEIQNATIKRQLKALQQSGSSALSPDKNKQLNTILNTMSTIYSTGKVCNSMNPQECFLLEPGLDEIMATSTDYNRRLWAWEGWRAEVGKQLRPLYEEYVVLKNEMARANNYEDYGDYWRGDYEAEGVEGYNYNRNQLIEDVENTFKEIKPLYEQLHAYVRTKLMEVYPSYISPTGCLPAHLLGDMWGRFWTNLYPLTTPFLQKPNIDVTDAMVNQSWDAERIFKEAEKFFVSVGLPQMTPGFWTNSMLTEPGDDRKVVCHPTAWDLGHGDFRIKMCTKVTMDNFLTAHHEMGHIQYDMAYAKQPFLLRNGANEGFHEAVGEIMSLSAATPKHLKSIGLLPSNFQEDNETEINFLLKQALTIVGTLPFTYMLEKWRWMVFQDKIPREQWTKKWWEMKREIVGVVEPLPHDETYCDPASLFHVSNDYSFIRYYTRTIYQFQFQEALCQAAKHDGPLHKCDISNSTEAGQKLLNMLSLGNSGPWTLALENVVGSRNMDVKPLLNYFQPLFVWLKEQNRNSTVGWSTDWSPYADQSIKVRISLKSALGKNAYEWTDNEMYLFRSSVAYAMREYFSREKNQTVPFGEADVWVSDLKPRVSFNFFVTSPKNVSDIIPRSEVEEAIRMSRGRINDIFGLNDNSLEFLGIYPTLKPPYEPPVTIWLIIFGVVMGTVVVGIVILIVTGIKGRKKKNETKREENPYDSMDIGKGESNAGFQNSDDAQTSF"}}}
{"variants_of": "B1", "details": "with spike_sars S"}
{"variant": "N82M;F83Y;S84P;H353K", "effect of a mutation on the interaction": "causing an interaction"}
{"variants_of": "B1", "details": "with spike_sars S", "remark": "another data set of the same source"}
{"variant": "N82M;F83Y;S84P;H353K", "effect of a mutation on the interaction": "causing an interaction"}
{"variant": "N82M;F83Y;S84P", "effect of a mutation on the interaction": "causing an interaction"}
{"variant": "H353K", "effect of a mutation on the interaction": "causing an interaction"}
